The text below walks through data of the emibetuzumab library of Makowski et al. (2022).

To fix the notation:
B1: VH:VL chains; a variant is named by its letters at X, in order (parent)
chain 1: QVQLVQSGAEVKKPGASVKVSCKASGYTFTDYXMHWVRQAPGQGLEWMGXVNPNXXXTTYNQKFEGRVTMTTDTSTSTAYMELRSLRSDDTAVYYCARXNXLDXWGQGTTVTVSS
chain 2: DIQMTQSPSSLSASVGDRVTITCSVSSSVSSIYLHWYQQKPGKAPKLLIYSTSNLASGVPSRFSGSGSGTDFTLTISSLQPEDFATYYCQVYSGYPLTFGGGTKVEIK

The data set covers variants of B1. The data set can be described thus: yeast display scFab, FACS + sequencing. The procedure, abridged: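 For the non-specific binding call, a heavy-chain CDR mutant scFab library on the yeast surface was FACS-sorted and samples from two replicates were deep sequenced. Cells were labelled with anti-Myc and either biotinylated ovalbumin (260 μg/mL in PBSB, 3 h, room temperature) or soluble membrane proteins (130 μg/mL, 20 min on ice), with gates on the top 25% and bottom 10% of binders. With membrane protein and ovalbumin samples pooled, a sequence in ≥3 of 4 positive samples and no negatives was scored positive, and the converse rule scored negatives.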
SGGKNSVD: the non-specific binding call is on record as “no binding”. Turning to FKKKDASV, the non-specific binding call is “binds”. As for YATRGAAA, the non-specific binding call is recorded as “binds”.

For YKGKGALA, the non-specific binding call is given as “binds”. With DGRGDALS the entry was “no binding”. In the case of FKKGSYVF, the non-specific binding call is on record as “binds”. The value for YRRGGAAF was “binds”. With YRGANSGA the entry was “binds”. As to FKKGSSGD, the non-specific binding call is “binds”.

On to DAGAAAGD, for which the non-specific binding call is reported as “no binding”. With DEKKADWA the entry was “no binding”. Take VETEGAVY: the non-specific binding call was “no binding”. The value for FRTGDDAV was “no binding”; that for YRGGSSGY was “binds”; that for FRTGDAVS was “no binding”. With DRRGDDVF, the non-specific binding call was “no binding”. With FRKRGSAV the entry was “binds”. In the case of VETEGDVY, the non-specific binding call was “no binding”. The value for FARKSFGS was “binds”. With VKGRGASV the entry was “binds”; with YRGAGAVS, “binds”. With SAGRGDGS the entry was “no binding”; with YRKGGAVV, “binds”; with YRGRDSAS, “no binding”.

Turning to AKAGSYGV, the non-specific binding call is “binds”. Take SEEEGDAV: the non-specific binding call is “no binding”. The value for YGGRAAGA was “binds”. The value for SRGGDDVA was “no binding”; that for VKGASDVV was “no binding”. The value for YRRGASGV was “binds”. With STAESDLD, the non-specific binding call was “no binding”. The value for YGETGFGS was “binds”; that for FKGEGDVY was “no binding”; that for YRRANFLD was “binds”.

In the case of FKGGGFGA, the non-specific binding call was “binds”. The value for YRERGSAA was “binds”; that for DTGTGSWD was “no binding”; that for YRTRSAAV was “binds”.

As to ARAETDVY, the non-specific binding call is on record as “no binding”. With VRTADDGA the entry was “no binding”; with ARAGSFWA, “binds”; with DTEEGDWV, “no binding”.

YRRKGASV: the non-specific binding call was “binds”.

Consider YKGKGAGF, for which the non-specific binding call is reported as “binds”.

On to DREEGDWV, for which the non-specific binding call is reported as “no binding”.

Turning to FAARAFGV, the non-specific binding call was “binds”.

For the variant DTKAADGV, the non-specific binding call is recorded as “no binding”. The value for YAGRGDVD was “no binding”; that for YRGRTAGV was “binds”; that for YEGGTDGA was “no binding”.

In the case of VTTRADVV, the non-specific binding call is reported as “no binding”. FRTRDSSS: the non-specific binding call was “binds”. With YAREDDGA the entry was “no binding”; with YRRKGSSA, “binds”; with DKGGAVWT, “no binding”. The value for DRAGDSLD was “no binding”; that for VAKADDWF was “no binding”. The value for STGGDDGF was “no binding”. Regarding SETGGAGD, the non-specific binding call is “no binding”. With AETKGDVY, the non-specific binding call was “no binding”.

Consider VRGTGSAD, for which the non-specific binding call is recorded as “binds”. Consider VRTRSSLD, for which the non-specific binding call was “binds”.

In the case of FKKRGAWS, the non-specific binding call is reported as “binds”. The value for SKTKSSGA was “no binding”; that for VTGTGDVV was “no binding”. With VEAGDDVV, the non-specific binding call is reported as “no binding”. Take DKEGGSLV: the non-specific binding call is “no binding”. Turning to YRRGDASD, the non-specific binding call was “binds”.

DGKEGYWA: the non-specific binding call was “binds”. With FRRGGSAA the entry was “binds”. The value for YARADDGD was “no binding”; that for FRTRSSLA was “binds”. The value for YRRGGSGS was “binds”; that for ATGGGYVA was “binds”. Turning to DTKAASSS, the non-specific binding call is recorded as “no binding”.

Take DGARNSGV: the non-specific binding call is on record as “no binding”. For DAARGDSA, the non-specific binding call is “no binding”. The value for VTTKSDSV was “no binding”; that for YKTESYWY was “binds”. For YEGTGSWA, the non-specific binding call was “no binding”. With YRARSSVV the entry was “binds”; with VTTKSAVA, “no binding”.

Regarding YEGTGSGD, the non-specific binding call was “no binding”. With SAGEGSLV the entry was “no binding”; with YTGTSDWV, “no binding”. The value for DAGKGAVY was “no binding”. With YGATSSLA, the non-specific binding call is on record as “binds”.

In the case of YTRGADWY, the non-specific binding call was “no binding”. The value for DEGKDDVA was “no binding”; that for STTKSDGV was “no binding”. As for FKGKGVGD, the non-specific binding call was “binds”. With DRGEGAGD chain 1 G42D the entry was “no binding”; with YAEGDAAD, “no binding”. With VEGGGDWS the entry was “no binding”; with VTAGDDAV, “no binding”; with DTERGSLV, “no binding”. The value for YKGRDAWD was “binds”. Regarding FRRGGAAA, the non-specific binding call is “binds”. Turning to YRRGSASD, the non-specific binding call is “binds”. Take VEAGDDGA: the non-specific binding call was “no binding”. With VEERDDWF the entry was “no binding”; with DATGGDGS, “no binding”; with VAEKGFLV, “binds”. Consider FTEEGDGV, for which the non-specific binding call is on record as “no binding”. As to FTEEGDGA, the non-specific binding call was “no binding”. The value for FAAGSSGS was “binds”; that for YEGTGSAD was “no binding”; that for SEGTGDWV was “no binding”. VKGEGDVY: the non-specific binding call was “no binding”. With SRKKGDGS the entry was “binds”. The value for YKRGGSGD was “binds”; that for VRERGDGV was “no binding”; that for VEKEGDGA was “no binding”.

In the case of VAATGVSD, the non-specific binding call was “binds”.

As to AGGRSFVF, the non-specific binding call was “binds”. The value for VKAGGDGS was “no binding”; that for DAKENDVA was “no binding”; that for AEAGADVV was “no binding”. Regarding YKRGSAVD, the non-specific binding call is reported as “binds”.

Regarding DAKENAGD, the non-specific binding call was “no binding”. With FTGEAAGD, the non-specific binding call is on record as “no binding”. With SEARSDSF the entry was “no binding”; with YRTRGALA, “binds”; with VTGTGAVV, “no binding”. The value for VTTKGDVF was “no binding”. Regarding SRGRGSWD, the non-specific binding call is “binds”. The value for SKKRGSWD was “binds”. On to YRRRSAVA, for which the non-specific binding call is recorded as “binds”. The value for DGARNAAA was “no binding”.

With FAEGDDVA, the non-specific binding call is on record as “no binding”. As to VEGTGVGD, the non-specific binding call is recorded as “binds”. As to YTERAAWA, the non-specific binding call is reported as “no binding”. For DATGGSGA, the non-specific binding call is listed as “no binding”. VTKTGAAA: the non-specific binding call was “no binding”.

Take YRGRDSVS: the non-specific binding call is “binds”. Take SRGRGAWY: the non-specific binding call was “binds”. With SRGRGAWS the entry was “binds”; with VKGRAYGV, “no binding”; with YRGRGYAA, “binds”. With YRAGTAVS the entry was “binds”; with YRRRGSSA, “binds”; with YRTRGAAA, “binds”. The value for DRAGDDVF was “no binding”; that for ARRRGAAA was “binds”; that for VAARGDAA was “no binding”. Regarding VTGGDDWF, the non-specific binding call is recorded as “no binding”. The value for AEERDSVV was “no binding”; that for STAEDFVV was “no binding”; that for YRARSAWS was “binds”. The value for ARRGAYGV was “binds”. With FRARGAGS the entry was “binds”; with VTGTGYVF, “no binding”. For YRGKGYVV, the non-specific binding call was “binds”. As to AEEEGSAA, the non-specific binding call is “no binding”. The value for FRRGGAGD was “binds”. On to DRAGDDWV, for which the non-specific binding call is “no binding”.

With VGGRADGF, the non-specific binding call is “binds”. With DREEGAGV the entry was “no binding”. As to SRGKSFGS, the non-specific binding call is “binds”.

Turning to VEEEAFAV, the non-specific binding call is “no binding”. For VEGRGDAV, the non-specific binding call is listed as “no binding”. Turning to DRAGDAGS, the non-specific binding call is reported as “no binding”. As to FTREASAV, the non-specific binding call is on record as “binds”.

As for VEGTSAVY, the non-specific binding call is on record as “no binding”.

Take YRAEGYVV: the non-specific binding call was “binds”. As for VKRGSSAA, the non-specific binding call is reported as “binds”.

SRGRGSSS: the non-specific binding call is reported as “binds”. The value for SRAGDYLV was “no binding”. The value for YTTRGSWV was “no binding”; that for VAGTGSAD was “no binding”; that for ATGEDDVY was “no binding”. Turning to SKGRSDGV, the non-specific binding call is listed as “no binding”.

With ARTRTAWY, the non-specific binding call is “binds”.

As for ATTGGDWD, the non-specific binding call is given as “no binding”. The value for DRAGDAVS was “no binding”; that for DGGKNSVD was “no binding”.

Regarding AETKGDWV, the non-specific binding call is listed as “no binding”. With YRTRSAGA the entry was “binds”; with VKGEAAWD, “binds”; with YRARGAWF, “binds”. The value for AEARSDGA was “no binding”; that for SATTDSVD was “no binding”; that for DEARGAGD was “no binding”.

Regarding VGGTGSGA, the non-specific binding call was “no binding”.

With SARTDFWF, the non-specific binding call is recorded as “binds”. Consider DGGGNVSD, for which the non-specific binding call is on record as “no binding”.

Turning to VEGGTDVA, the non-specific binding call is on record as “no binding”. With DAKENAVY the entry was “no binding”; with FRRGSSVV, “binds”; with DRRGDASD, “no binding”. Regarding ARAGDYLV, the non-specific binding call is listed as “no binding”. The value for VGGTSSSS was “no binding”; that for SAAGADWS was “no binding”; that for AAKEGALV was “no binding”. With DRGRDDVF, the non-specific binding call is “no binding”. With FRERGYGA the entry was “binds”. Turning to ARRGGSGF, the non-specific binding call is recorded as “binds”. With VRRAADSD the entry was “binds”; with YEGGADVF, “no binding”. On to STGGGDGV, for which the non-specific binding call is reported as “no binding”. YAEGASSF: the non-specific binding call is “no binding”. With YRGRSASV the entry was “binds”; with DKEGGSAD, “no binding”. Turning to YEGTGAGA, the non-specific binding call is “no binding”. The value for YRKGASAF was “binds”; that for YRTRDSVD was “binds”; that for YRKGSSLF was “binds”. With FRTRDSGY chain 1 V68I the entry was “binds”. The value for FRRRGAVA was “binds”; that for DARGGDVY was “no binding”; that for VAGGDDVA was “no binding”. In the case of YKGAGDVV, the non-specific binding call is listed as “no binding”.

On to YTERGDVY, for which the non-specific binding call was “no binding”. In the case of FRGGGAVA, the non-specific binding call is reported as “binds”. With FRTRDAGD the entry was “no binding”. The value for YKGAGALD was “binds”; that for YRAGGYGD was “binds”; that for YRAGGYGF was “binds”. For the variant FTGRGAVA, the non-specific binding call was “binds”. The value for FRGGSSGV was “binds”; that for DTREGDVA was “no binding”.

As to YRGAASAV, the non-specific binding call was “binds”. Take FKGRGAWV: the non-specific binding call is “binds”. Consider DAARAVSS, for which the non-specific binding call is “binds”.

Consider DEGGTDVA, for which the non-specific binding call is “no binding”. The value for YRRGGVGV was “binds”; that for VEGTSSGD was “no binding”; that for SARRGDWA was “binds”. For the variant DRGGDAVV, the non-specific binding call was “no binding”. The value for YRRGSFAA was “binds”; that for YKGGSSAD was “binds”; that for YGRGNSGD was “no binding”. For VKGRASAS, the non-specific binding call is “no binding”.
